± gives the standard deviation of the averaged measurements.

The series concerns ATP. The series is described as follows: switch fluorescence ratio, 500 uM ATP over buffer (Cy3 cluster intensity, sum of 5 cycles each) (fold (ratio)); higher = stronger signal-on switching upon ATP binding; sequences stand for … in TCGTCGGCAGCGTCAGATGTGTATAAGAGACAGTTTTTTTTTTTTTTTTTTTTTTTTT…TC. To be noted: aptamer strand: ATP DNA aptamer (quencher-CACCTGGGGGAGTATTGCGGAGGAAGG + anchor), 100 nM annealed; ATP concentration: 500 uM. The method, boiled down: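 The quencher-labelled ATP aptamer, at 100 nM, was annealed to Cy3-labelled switching-strand clusters on a modified Illumina MiSeq flow-cell. The clusters were imaged in selection buffer, then after 15 min with 500 uM ATP at 22 °C, and this buffer/ATP cycle ran five times with NaOH stripping and re-annealing between runs. Per-cluster fluorescence ratios, summed target-cycle over summed buffer-cycle Cy3 intensity, were averaged per switch-domain sequence. Clusters outside 100-1000 RFU were excluded.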
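Also: ATP exposure 15 min at 22 °C before imaging.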

Consider TTAAGTGGAA, for which the switch fluorescence ratio worked out at 0.997 ± 0.049. Consider ATATCATGTC, for which the switch fluorescence ratio turned out to be 0.9895 ± 0.0032. With CCTGATTTGA, the switch fluorescence ratio was 0.989 ± 0.02. As for TAGCTGAGGT, the switch fluorescence ratio stood at 1.03 ± 0.017. On to GGTCACAAGA, for which the switch fluorescence ratio is 1 ± 0.032. For CGGAGGCGTT, the switch fluorescence ratio came to 0.986 ± 0.041. AACGGATCGG: the switch fluorescence ratio was found to be 0.998 ± 0.025. Turning to GCTAACGGTT, the switch fluorescence ratio amounted to 0.981 ± 0.011.

Take TGGGTAGGTG: the switch fluorescence ratio came out at 1.11 ± 0.028. Take AATTATACCC: the switch fluorescence ratio stood at 1.03 ± 0.029. Take TTTTTTTGAA: the switch fluorescence ratio amounted to 0.979 ± 0.02. Regarding TCCTACGGGG, the switch fluorescence ratio was 1.14 ± 0.18. ATGATCTTCG: the switch fluorescence ratio worked out at 1.038 ± 0.0053. As for GCAAGCTGCA, the switch fluorescence ratio was determined as 1.016 ± 0.0087. Take CCCCCGGGGT: the switch fluorescence ratio came out at 1.83 ± 0.38. For ATCGTTATTA the value was 1.02 ± 0.018. In the case of AAAGGGTATC, the switch fluorescence ratio is 0.9956 ± 0.0092. Regarding ATTGTGACGA, the switch fluorescence ratio came out at 1.03 ± 0.027. GGGTTTAATT: the switch fluorescence ratio stood at 0.999 ± 0.011.

As to CTCTCAAGGG, the switch fluorescence ratio came out at 1.088 ± 0.0077. For AGTCTTAGCA the value was 0.991 ± 0.049. The same measure for TTATTTGGAT: 0.9897 ± 0.005; for GAGCTTGAGT: 0.984 ± 0.011. In the case of CGTGAAGATG, the switch fluorescence ratio turned out to be 0.9674 ± 0.0068. In the case of GGGGGATGAA, the switch fluorescence ratio is 0.991 ± 0.025. For the sequence GGGTCAACGT, the switch fluorescence ratio was 0.987 ± 0.015. As to TTCGTTAGAA, the switch fluorescence ratio is 1.0091 ± 0.00067. The same measure for CTAGTTCGTC: 0.972 ± 0.12.

For the sequence AAGAGAGGTG, the switch fluorescence ratio is 1.07 ± 0.014. As to TCGGTTGTG, the switch fluorescence ratio amounted to 0.9644 ± 0.0092. With AGTTAGGGCG, the switch fluorescence ratio stood at 1.04 ± 0.058. CACCCCGGTT: the switch fluorescence ratio stood at 1.12 ± 0.051. The same measure for TTCGTGTGGC: 0.932 ± 0.02; for TCAGTTTATG: 0.961 ± 0.011. Consider TGGTCAAAGA, for which the switch fluorescence ratio was found to be 0.986 ± 0.015. The same measure for GTGAAAAGGC: 0.9862 ± 0.0032; for TTTAGTGCGG: 0.973 ± 0.033; for GTAGGGGGAC: 1.05 ± 0.099.

For the sequence AGGTAGGCAT, the switch fluorescence ratio came to 1 ± 0.041. For CGAGAGGAGT the value was 0.997 ± 0.014. For CAAGGAAGGA the value was 0.9967 ± 0.005; for TAAGGCAAGG, 1.03 ± 0.021. Consider GGGCGCAGCG, for which the switch fluorescence ratio came out at 0.978 ± 0.031. Consider TTTGATACAG, for which the switch fluorescence ratio turned out to be 1.012 ± 0.0071. On to TGTTTAGCTT, for which the switch fluorescence ratio is 1.024 ± 0.0066. With TAAAAAGGGG, the switch fluorescence ratio worked out at 0.998 ± 0.012. On to ACGGAATCCT, for which the switch fluorescence ratio came to 1.19 ± 0.018.

Regarding GGATCGGGGC, the switch fluorescence ratio was found to be 0.994 ± 0.046. For AACTATGGTA the value was 0.992 ± 0.033. Regarding TTAGTTGGCA, the switch fluorescence ratio stood at 0.981 ± 0.016. For the sequence AGTAGGGTCC, the switch fluorescence ratio turned out to be 1.03 ± 0.029. CATGCAGCAT: the switch fluorescence ratio was 1.11 ± 0.02. With GGTAGAAGGG, the switch fluorescence ratio worked out at 0.989 ± 0.042. Turning to TCAGGGTGCC, the switch fluorescence ratio amounted to 1.017 ± 0.0094. The same measure for GTTGGGGTGA: 1.05 ± 0.02.

TTTCGTCATC: the switch fluorescence ratio worked out at 1.66 ± 0.91. As to CGTTAGTGTA, the switch fluorescence ratio is 0.99 ± 0.023. On to TCCTTTATTG, for which the switch fluorescence ratio is 1.01 ± 0.021. As to CACGCGGGGG, the switch fluorescence ratio was found to be 1.03 ± 0.015.

Regarding ATTAATTTTC, the switch fluorescence ratio came out at 0.997 ± 0.039.

In the case of TAGTGGGGCA, the switch fluorescence ratio is 0.966 ± 0.033.

Turning to TACTCAGAGG, the switch fluorescence ratio turned out to be 1.04 ± 0.021. Turning to CGGCTGGTTC, the switch fluorescence ratio was 0.98 ± 0.04.

Turning to AGTTACGGAC, the switch fluorescence ratio worked out at 1.36 ± 0.017. As to GTTATCGAGG, the switch fluorescence ratio came out at 1.02 ± 0.011.

Consider AGACACGGGG, for which the switch fluorescence ratio was 1.06 ± 0.02. As to TATGTCACAA, the switch fluorescence ratio was 1.03 ± 0.014. As for TAAAAAGATG, the switch fluorescence ratio is 1.02 ± 0.044. For the sequence GAGTCGGGGT, the switch fluorescence ratio is 1.01 ± 0.027.

TTCAGCAATT: the switch fluorescence ratio worked out at 1.57 ± 0.31. As to CATACAATAT, the switch fluorescence ratio amounted to 1.109 ± 0.0014. On to AATGGCATTC, for which the switch fluorescence ratio came out at 1.03 ± 0.038.

As for TTACTATGGC, the switch fluorescence ratio was 0.966 ± 0.032. Turning to AAAGGGGCTG, the switch fluorescence ratio amounted to 0.98 ± 0.061. With TGGGGTTGGA, the switch fluorescence ratio came out at 1.01 ± 0.025. On to CTTTTGTGTC, for which the switch fluorescence ratio was 0.9866 ± 0.0071. As to TATTTTAGGA, the switch fluorescence ratio was 0.9743 ± 0.003. On to CATATTTCCA, for which the switch fluorescence ratio was found to be 0.99 ± 0.02.

Consider TTTTTTCAGG, for which the switch fluorescence ratio is 1.03 ± 0.027. In the case of GAGAATCCGG, the switch fluorescence ratio amounted to 1 ± 0.087. On to TATAGAGATG, for which the switch fluorescence ratio was 1.01 ± 0.036. As for GGAGGCGGGC, the switch fluorescence ratio came to 0.963 ± 0.12. Turning to CGGATGTATA, the switch fluorescence ratio turned out to be 0.988 ± 0.014. As to TGAAGGAGTG, the switch fluorescence ratio worked out at 0.955 ± 0.038.

As for AGGATAGTTG, the switch fluorescence ratio was determined as 0.982 ± 0.038. For the sequence GATATAGGGT, the switch fluorescence ratio amounted to 0.983 ± 0.018. Regarding AGTTAAATTT, the switch fluorescence ratio stood at 0.994 ± 0.035.

As for CGGTTCGGGT, the switch fluorescence ratio amounted to 0.993 ± 0.013. Take AATAAAAAAC: the switch fluorescence ratio turned out to be 1.05 ± 0.078. GGGAAATTCG: the switch fluorescence ratio is 1.012 ± 0.0039. For CGCCTTAATT the value was 1.01 ± 0.042; for TTCGGGGGCA, 1.01 ± 0.052.

With TGAGAAGTTT, the switch fluorescence ratio came out at 0.992 ± 0.023. Regarding GTGTGGCGGG, the switch fluorescence ratio came out at 0.996 ± 0.011. Take TGACATCTA: the switch fluorescence ratio came out at 1.07 ± 0.057. As for TTTAGCTCTG, the switch fluorescence ratio was found to be 1.02 ± 0.019.

As for TGTAATCTAC, the switch fluorescence ratio was determined as 1.06 ± 0.057.

On to GACCTAAGAC, for which the switch fluorescence ratio worked out at 1.13 ± 0.053. With TGTGAGTAGG, the switch fluorescence ratio is 1.02 ± 0.017. For the sequence TAACACATTT, the switch fluorescence ratio is 0.98 ± 0.059. For AGGGGATGCT the value was 1.01 ± 0.016; for CGGCTGTATG, 0.988 ± 0.035. The same measure for TTCAGAGTCA: 0.985 ± 0.042; for TCCTGGCTGT: 1.09 ± 0.027; for AAACTAGGGG: 1.06 ± 0.016. For TTGAAGGATG the value was 0.997 ± 0.029; for AATTCCGGGT, 1.02 ± 0.031; for ATAAAGGTCT, 0.984 ± 0.0053. Take GTGTTATGTG: the switch fluorescence ratio came to 0.9504 ± 0.0021. Turning to CAGTTTGACC, the switch fluorescence ratio was 0.987 ± 0.048. Turning to AAATGGTCGA, the switch fluorescence ratio came to 0.974 ± 0.01. Regarding AACAGCGGGC, the switch fluorescence ratio was found to be 1.03 ± 0.084. GGGGAATGCT: the switch fluorescence ratio stood at 1.01 ± 0.02. On to AGTAGAGGAC, for which the switch fluorescence ratio amounted to 1.01 ± 0.045.

In the case of AAAATAGGGA, the switch fluorescence ratio came to 0.989 ± 0.024. For ACCCGGCACA, the switch fluorescence ratio was 1.21 ± 0.051. The same measure for ATGACTTGTA: 0.987 ± 0.015; for ACATCGGGTG: 1.42 ± 0.59. On to TGATCTGCAG, for which the switch fluorescence ratio came out at 1.016 ± 0.0077. For ATCTAGGGGG, the switch fluorescence ratio came to 1.05 ± 0.017.

The values above are taken from the supplement of paper PMC10126150.
